Measurements taken from patent US20250129146A1, “COMBINED CANCER THERAPY WITH AN EPITHELIAL CELL ADHESION MOLECULE (EPCAM) INHIBITOR AND A WNT INHIBITOR” (ACADEMIA SINICA, priority 2021, published 2025).

B1: Wnt3A: recombinant Wnt3A (R & D systems) (protein, UniProt P56704 19-352, looked up)
Protein Wnt-3a: SYPIWWSLAVGPQYSSLGSQPILCASIPGLVPKQLRFCRNYVEIMPSVAEGIKIGIQECQHQFRGRRWNCTTVHDSLAIFGPVLDKATRESAFVHAIASAGVAFAVTRSCAEGTAAICGCSSRHQGSPGKGWKWGGCSEDIEFGGMVSREFADARENRPDARSAMNRHNNEAGRQAIASHMHLKCKCHGLSGSCEVKTCWWSQPDFRAIGDFLKDKYDSASEMVVEKHRESRGWVETLRPRYTYFKVPTERDLVYYEASPNFCEPNPETGSFGTRDRTCNVSSHGIDGCDLLCCGRGHNARAERRREKCRCVFHWCCYVSCQECTRVYDVHTCK
B2: EpAb2-6: anti-EpCAM (EpEX) neutralizing monoclonal antibody produced in mice by hybridoma; VH SEQ ID NO: 15, VL SEQ ID NO: 16 (antibody, V domains shown)
VH: VKLQESGPELKKPGETVKISCKASGYTFTDYSMHWVKQAPGKGLKWMGWINTETGEPTYADDFKGRFAFSLETSASTAYLQINNLKNEDTATYFCARTAVYWGQGTTVTVSS
VL: DIQMTQSPSSLSASLGERVSLTCRASQEISVSLSWLQQEPDGTIKRLIYATSTLDSGVPKRFSGSRSGSDYSLTISSLESEDFVDYYCLQYASYPWTFGGGTKLEIK
B3: EpEX: extracellular domain of EpCAM, produced in house by Expi293 Expression System (protein)
chain: QEECVCENYKLAVNCFVNNNRQCQCTSVGAQNTVICSKLAAKCLVMKAEMNGSKLGRRAKPEGALQNNDGLYDPDCDESGLFKAKQCNGTSMCWCVNTAGVRRTDKDTEITCSERVRTYWIIIELKHKAREKPYDSKSLRTALQKEITTRYQLDPKFITSILYENNVITIDLVQNSSQKTQNDVDIADVAYYFEKDVKGESLFHSKKMDLTVNGEQLDLDPGQTLIYYVDEKAPEFSMQGLKAGVIAVIVVVVIAVVAGIVVLVISRKKRMAKYEKAEIKEMGEMHRELNA

Legend:
[1] = test system: colon cancer cells (SW620, HCT116); assay: Annexin-V/PI apoptosis assay; type: cell-based, human
Description: Cells were seeded in 24-well plate ([…] cells per well) overnight and then treated with 20 μg/mL mEpAb2-6, hEpAb2-6 or MT201, or […] LGK974 (MedChemExpress) or the combination for 24 hrs. Cell pellets were collected, and an apoptosis assay was performed using an Annexin-V/PI apoptosis kit (BD Biosciences). Results were read by flow cytometry analysis percentage apoptotic cells was calculated.

[2] = test system: Axin2; assay: Wnt-target Axin2 expression (western blot, qPCR); type: cell-based, human; conditions: HT29 and HCT116 cells; EpEX, Wnt3A or combination; protein and mRNA
Description: For western blotting, cells were extracted using radioimmunoprecipitation assay (RIPA) buffer [(0.01 M sodium phosphate, pH 7.2), 150 mM NaCl, 2 mM EDTA, 50 mM NaF, 1% Nonidet P-40, 1% sodium deoxycholate, and 0.1% SDS)] containing phosphatase inhibitor (Roche) and protease inhibitor (Roche) cocktail. Equal amounts of protein were separated by SDS-PAGE and then transferred to PVDF membranes. The membranes were blocked with 3% BSA in TBST (Blocking solution) and incubated with necessary primary antibodies in the blocking solution overnight at 4° C. Membranes were then incubated with HRP-conjugated secondary antibodies in the blocking solution for 1 h at room temperature, and protein expression were detected. […]
Total RNA was extracted using TRI reagent and 5 μg of the total RNA was further reverse-transcribed using oligo (dT) primer with reverse transcriptase. Quantitative real time RT-PCR (qPCR) was performed on cDNA using the Light Cycler 480 SYBR Green-I Master kit and the LightCycler480 System. […]

[3] = test system: TACE; assay: TACE activity assay; type: cell-based, human; conditions: HCT116 and HT29 cells; 250 ng/mL EpEX-His or 100 ng/mL Wnt3A for 8 h, or combination
Description: Cells were seeded overnight in 24-well plate ([…] cells per well) and further treated with 250 ng/mL EpEX-His or 100 ng/mL Wnt3A (R&D Systems) for 8 h. Then, TACE activity was measured using the InnoZyme TACE activity kit (Merck). In brief, cell lysates were prepared with RIPA buffer and loaded into a TACE antibody-coated plate and incubated at RT for 1 h with slight shaking. Further, the lysates were removed and the plate was washed three times. Substrate was added into each well and incubated for 5 h at 37° C. Finally, the fluorescence signal of the reaction product was detected at excitation of 324 nm and emission of 405 nm using a microplate reader.

[4] = test system: γ-secretase; assay: γ-Secretase activity (luciferase reporter); type: cell-based, human; conditions: HCT116 and HT29 cells; 250 ng/mL EpEX-His or 100 ng/mL Wnt3A for 8 h, or combination
Description: The γ-secretase activity was measured using the protocol described by Liao et al (2004) (Liao et al., 2004). In brief, cells were transiently transfected with the control plasmid and tetracycline-inducible γ-secretase plasmid harboring luciferase (Liao et al., 2004) (the plasmids were generous gifts from Dr. Yung-Feng Liao, ICOB, Academia Sinica). Cells were treated with 250 ng/mL EpEX-His or 100 ng/mL Wnt3A (R&D Systems) for 8 h. Further, cells were lysed using passive lysis buffer and subjected to the luciferase assay.

[5] = test system: TACE and presenilin-2 (PS2); assay: Phosphorylation of ADAM17 (TACE) and Presenilin2 (western blot); type: cell-based, human; conditions: HCT116 cells; EpEX, Wnt3A for 8 h
Description: For western blotting, cells were extracted using radioimmunoprecipitation assay (RIPA) buffer [(0.01 M sodium phosphate, pH 7.2), 150 mM NaCl, 2 mM EDTA, 50 mM NaF, 1% Nonidet P-40, 1% sodium deoxycholate, and 0.1% SDS)] containing phosphatase inhibitor (Roche) and protease inhibitor (Roche) cocktail. Equal amounts of protein were separated by SDS-PAGE and then transferred to PVDF membranes. The membranes were blocked with 3% BSA in TBST (Blocking solution) and incubated with necessary primary antibodies in the blocking solution overnight at 4° C. Membranes were then incubated with HRP-conjugated secondary antibodies in the blocking solution for 1 h at room temperature, and protein expression were detected. Antibodies used: anti-α-tubulin (Sigma), anti-EpCAM (abeam), anti-Active β-Catenin (Millipore), anti-total β-Catenin (abeam), anti-Frizzled 6 (CST), anti-Frizzled 7 (Santa Cruz Biotech), anti-LRP5 (abcam), anti-Phospho-LRP5 (abcam), anti-Phospho-LRP6 (CST), anti-LRP6 (CST) and anti-EpEX antibody EpAb3-5 (Produced in house), anti-ADAM17 (abcam), anti-phopho-ADAM17 (abcam), anti-Presenilin2 (abcam), anti-phospho-Presenilin2 (S327) (abcam), anti-phospho-Presenilin2 (S330) (abcam) and anti-Axin2 (CST).
To study the kinase activity of GSK3 and CK1, 10^6 cells were seeded overnight and treated with GSK3 inhibitor BIO (Sigma) or CK1 inhibitor PF-670462 (selleckchem) for 8 h. […]

[6] = biological target: T1, recombinant FZD7 (Homo sapiens, UniProt O75084); assay: ELISA of EpEX binding to Wnt receptor-coated plates (FZD7)
T1 construct: purchased Proteintech
Description: (§1) For ELISA, wells (at least 6 wells per single protein) were coated with recombinant FZD6 (Proteintech), recombinant FZD7 (Proteintech), recombinant LRP5 (Proteintech), recombinant LRP6 (Proteintech) overnight at 4° C. The wells were then blocked with 1% BSA and treated with EpEX-his (Produced in house by Expi293 Expression System) for 2 hours. Otherwise, EpEX-His was incubated with EpAb2-6 overnight and the complex was used to treat the protein-coated plates for 2 hours. Further anti-His antibody (abeam) was used and TMB was performed to record optical density at 450 nm.

[7] = biological target: T2, recombinant LRP5 (Homo sapiens, UniProt O75197); assay: ELISA of EpEX binding to Wnt receptor-coated plates (LRP5)
T2 construct: purchased Proteintech
Description: as §1

[8] = EpEX-His incubated with antibody overnight
[9] = EpEX-His alone, 2 hours, optical density at 450 nm

T2 sequence (O75197 32-1615): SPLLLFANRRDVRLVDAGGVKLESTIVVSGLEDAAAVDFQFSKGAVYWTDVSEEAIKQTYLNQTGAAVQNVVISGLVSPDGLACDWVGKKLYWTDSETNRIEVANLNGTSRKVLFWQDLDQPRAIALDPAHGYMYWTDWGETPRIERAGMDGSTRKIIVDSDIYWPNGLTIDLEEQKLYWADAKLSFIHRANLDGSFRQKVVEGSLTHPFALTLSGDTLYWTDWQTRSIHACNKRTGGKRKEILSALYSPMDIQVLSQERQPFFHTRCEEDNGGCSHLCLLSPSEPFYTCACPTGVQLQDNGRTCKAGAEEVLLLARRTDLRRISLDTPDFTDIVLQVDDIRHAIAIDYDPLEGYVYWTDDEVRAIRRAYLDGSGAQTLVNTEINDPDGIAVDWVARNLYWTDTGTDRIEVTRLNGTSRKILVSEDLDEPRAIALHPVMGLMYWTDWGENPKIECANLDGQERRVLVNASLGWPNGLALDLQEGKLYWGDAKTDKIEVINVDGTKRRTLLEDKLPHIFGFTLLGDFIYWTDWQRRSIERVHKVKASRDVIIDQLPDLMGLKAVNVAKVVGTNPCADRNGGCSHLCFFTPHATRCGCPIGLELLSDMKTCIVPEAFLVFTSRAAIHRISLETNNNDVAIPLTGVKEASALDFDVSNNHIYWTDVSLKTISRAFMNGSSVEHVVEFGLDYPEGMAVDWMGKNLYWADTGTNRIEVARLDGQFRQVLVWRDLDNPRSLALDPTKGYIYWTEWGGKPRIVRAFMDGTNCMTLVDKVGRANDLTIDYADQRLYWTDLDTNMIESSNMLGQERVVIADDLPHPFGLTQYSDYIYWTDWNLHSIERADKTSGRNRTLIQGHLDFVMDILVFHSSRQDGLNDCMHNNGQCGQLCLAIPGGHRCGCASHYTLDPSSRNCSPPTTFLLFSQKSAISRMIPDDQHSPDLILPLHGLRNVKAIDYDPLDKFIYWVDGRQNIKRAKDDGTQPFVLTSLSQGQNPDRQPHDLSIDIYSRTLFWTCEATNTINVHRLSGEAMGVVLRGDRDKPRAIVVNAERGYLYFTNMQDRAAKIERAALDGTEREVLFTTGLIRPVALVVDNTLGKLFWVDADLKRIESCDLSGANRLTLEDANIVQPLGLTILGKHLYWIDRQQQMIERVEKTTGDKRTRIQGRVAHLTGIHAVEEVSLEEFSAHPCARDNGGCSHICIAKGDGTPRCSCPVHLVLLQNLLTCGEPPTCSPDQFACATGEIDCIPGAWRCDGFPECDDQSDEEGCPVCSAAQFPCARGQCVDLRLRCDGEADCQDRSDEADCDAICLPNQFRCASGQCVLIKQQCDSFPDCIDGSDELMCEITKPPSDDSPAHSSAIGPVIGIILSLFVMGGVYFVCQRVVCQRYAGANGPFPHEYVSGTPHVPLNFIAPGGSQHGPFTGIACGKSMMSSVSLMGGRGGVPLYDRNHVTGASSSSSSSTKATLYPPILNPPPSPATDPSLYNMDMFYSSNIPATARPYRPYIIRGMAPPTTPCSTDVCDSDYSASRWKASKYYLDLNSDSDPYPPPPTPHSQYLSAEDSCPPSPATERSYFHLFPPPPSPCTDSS

EpEX binding to FZD7 [6, 9]	EpEX binding to LRP5 [7, 9]	Molecule	induction of apoptosis ([1]; HCT116 cells, 20 μg/mL hEpAb2-6, mEpAb2-6 or MT201 for 24 hrs)	Axin2 expression [2]	TACE activity [3]	γ-secretase activity [4]	phosphorylation of TACE and presenilin-2 (PS2) [5]	EpEX binding to FZD7 after pre-incubation with antibody [6, 8]	EpEX binding to LRP5 after pre-incubation with antibody [7, 8]	induction of apoptosis ([1]; SW620 and HCT116 cells, 20 μg/mL EpAb2-6, LGK974 or the combination for 24 hrs)
		MT201: adecatumumab, a human anti-EpCAM antibody that was subjected to clinical trials [reference compound]	does not have such activity							
		B1		increased Axin2 expression	enhanced	enhanced	increases the phosphorylation			
		B2						substantially decreased binding	substantially decreased binding	could induce apoptosis
bind with all receptor proteins	bind with all receptor proteins	B3		increased Axin2 expression	enhanced	enhanced	increases the phosphorylation			
